Source: patent EP3172325B1
One block for each substance: values may come before it.

Tests used:
[1] = target: MART-1 peptide on HLA-A*02:01 (human); assay: SPR, Biacore 3000, TCR amine-coupled to a CM5 chip, refolded pMHC injected up to 100 micromolar, 1:1 Langmuir model (Fig. 4); soluble, other
[2] = target: MART-1 peptide on HLA-A*02:01 (human); assay: SPR, Biacore 3000, TCR amine-coupled to a CM5 chip, refolded pMHC injected, 25 C; the same value stands in Table 2 r6, where the peptide is printed as AAG; soluble, other
[3] = target: MART-1 peptide on HLA-A*02:01 (human); assay: SPR, Biacore 3000, TCR amine-coupled to a CM5 chip, refolded pMHC injected up to 100 micromolar, 25 C, 1:1 Langmuir model (Fig. 2); soluble, other
[4] = target: MART-1 peptide on HLA-A*02:01 (human); assay: SPR, Biacore 3000, TCR amine-coupled to a CM5 chip, refolded pMHC injected, 25 C, 1:1 Langmuir model; Table 2 draws on Fig. 2 and published work (PMID: 24550723); soluble, other
[5] = target: MART-1 peptide on HLA-A*02:01 (human); assay: SPR, Biacore 3000, TCR amine-coupled to a CM5 chip, refolded pMHC injected up to 100 micromolar, 1:1 Langmuir model (Fig. 4); weaker than αD26Y/βL98W (0.024) and wild-type DMF5 (9.5); soluble, other

Substance: DMF5 TCR αD26Y/βL98W
Kd [2]: 0.024 µM

Substance: DMF5 TCR αD26Y
Kd [3]: 4.5 µM
Kd [4]: 0.46 µM

Substance: DMF5 TCR αD26Y/αY50V/βL98W
Kd [1]: 7.14 µM

Substance: DMF5 TCR βL98W
Kd [4]: 2.9 µM

Substance: DMF5 TCR αD26Y/αY50A/βL98W
Kd [5]: 556 µM

Now from value to substance:

Kd [1]: 0.64 µM
Substance: DMF5 TCR αD26Y/αY50F/βL98W

Kd [1]: 0.66 µM
Substance: DMF5 TCR αD26Y/αY50W/βL98W
